This passage reports Km results from PMC3397958, “Molecular Characterization of NAD^+-Dependent DNA Ligase from Wolbachia Endosymbiont of Lymphatic Filarial Parasite Brugia malayi” (PLoS ONE, 2012).

Substrate in the data set: NC(=O)c1ccc[n+]([C@@H]2O[C@H](COP(=O)(O)OP(=O)(O)OC[C@H]3O[C@@H](n4cnc5c(N)ncnc54)[C@H](O)[C@@H]3O)[C@@H](O)[C@H]2O)c1
The experiment in a line: nick closing activity; fluorescein-labelled oligonucleotide ligated to biotinylated oligonucleotide on streptavidin plate. The format is biochemical, Wolbachia endosymbiont of Brugia malayi. Particulars: nicked DNA duplex substrate, 20 mM Tris-HCl pH 8.0, 10 mM MgCl2, 10 mM (NH4)2SO4, 1.2 mM EDTA, 25 °C, 5 nM enzyme, NAD+ 0-30 µM, varied: cofactor.

B1: wBm-LigA (NAD+-dependent DNA ligase of Wolbachia endosymbiont of Brugia malayi) (Wolbachia endosymbiont strain TRS of Brugia malayi) (protein)
chain: MADLEKMIEEFTKLRDQISYHDVLYHQKSKPEIADAEYDKLKQKLVEMEGQLPGACVTQDGVGAAPDEKFSKIKHREPMLSLENAYDEQGVERFLSRIKRFLIEEEIEVFCEPKIDGLSFSAVYEDGRFVKAATRGDGFIGEDVTRNVATIKGFPRFLQDVQDRLEVRGEIYINNSDFLKLNKDNEFANPRNAAAGSLKQLDVSITANRPLKYFAYSLIGGKEKSQSEVLNRLESLGFCVNEHRSLTNNLSGMLEFYNKVYNCRYSLDYDIDGIVYKVNDLILQSRLGSTHKAPRSALAYKFSAVYAKTKLNKIFIQVGRTGVLTPVADLIPVNIGGVLVSRANLHNQDEIKRKDVREGDIVTIKRAGDVIPQIVRVDKGSRHADAPGFVFPEICPECGGKVQAEGAAIRCSEELTCKAQIIGKLSHFVSKGAFDIFGLGEKQIKFFYDLGLIKQIPDIFNLEERLNEFSLKEQPDWGERSIANLLNAIQNRRVITLDRFIFSLGIRFIGQVAAELLANYYVSYNNWYNSMIKLLSNDAEVGVGGVEKKIAKSFSDELVGIDGIGEKVAESLKSFFSKEHNIKMLKDLTDYLQILSVNSNSSNSVLNNKVIVFTGKLLTMSRGEAKVRAKALGAKVSSNLSAKIDYLVAGEKPGNKYKKAVELGVGILNEDQWYRMINSEVSE
notes: full length, 683 residues (ORF 2052 bp), pET28a(+), His6 tags at N and C terminus kept, expressed in E. coli Rosetta, Ni-NTA purified, ~75 kDa
By Km is commonly meant the substrate concentration at which the rate is half of its maximum. For the protein B1, the Km is 4.8 µM.
